Test results published in doi:10.1101/2022.12.09.519754, “Conformational restriction shapes inhibition of a multidrug efflux adaptor protein” (bioRxiv, 2022).

T1: AcrB in SMALP (styrene maleic acid lipid particle) native nanodiscs (E. coli, UniProt P31224 1-1049)
T1 construct: AcrB, inner membrane transporter of AcrAB-TolC, E. coli; Embedded in native lipid nanodiscs; also called trimeric AcrB SMALPs; source: E. coli C43(DE3) ΔacrAB, pET15b; extracted from membranes with 2.5% SMA 2000, purified (nickel NTA, PD-10 desalting)
T1 sequence: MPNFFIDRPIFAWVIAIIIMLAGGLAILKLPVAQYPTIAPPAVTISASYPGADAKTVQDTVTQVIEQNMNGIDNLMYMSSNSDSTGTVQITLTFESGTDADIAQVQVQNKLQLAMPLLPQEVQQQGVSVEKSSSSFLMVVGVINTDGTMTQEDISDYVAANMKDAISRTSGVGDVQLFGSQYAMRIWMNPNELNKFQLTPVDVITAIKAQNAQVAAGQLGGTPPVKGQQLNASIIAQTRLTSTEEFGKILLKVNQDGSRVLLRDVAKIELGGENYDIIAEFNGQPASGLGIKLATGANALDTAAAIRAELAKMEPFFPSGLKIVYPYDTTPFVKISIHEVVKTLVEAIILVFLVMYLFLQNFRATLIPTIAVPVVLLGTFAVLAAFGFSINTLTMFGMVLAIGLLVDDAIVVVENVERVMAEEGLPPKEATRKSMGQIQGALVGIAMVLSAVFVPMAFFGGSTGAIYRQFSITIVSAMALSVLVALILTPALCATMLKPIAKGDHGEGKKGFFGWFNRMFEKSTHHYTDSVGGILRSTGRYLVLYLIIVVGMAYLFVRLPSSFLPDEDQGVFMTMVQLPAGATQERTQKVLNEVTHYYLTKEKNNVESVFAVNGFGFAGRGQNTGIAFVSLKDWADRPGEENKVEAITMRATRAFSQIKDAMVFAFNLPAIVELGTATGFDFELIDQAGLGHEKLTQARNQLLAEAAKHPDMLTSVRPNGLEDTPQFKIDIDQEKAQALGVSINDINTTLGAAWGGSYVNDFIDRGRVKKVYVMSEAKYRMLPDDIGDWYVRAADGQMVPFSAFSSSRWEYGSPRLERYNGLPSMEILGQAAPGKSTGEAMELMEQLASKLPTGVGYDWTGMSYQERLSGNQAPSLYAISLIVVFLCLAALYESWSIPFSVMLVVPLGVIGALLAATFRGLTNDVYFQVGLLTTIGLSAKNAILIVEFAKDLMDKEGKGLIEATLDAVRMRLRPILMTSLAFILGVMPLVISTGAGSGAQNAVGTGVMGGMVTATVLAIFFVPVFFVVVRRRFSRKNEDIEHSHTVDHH


Key:
[1] = biological target: the molecule itself; assay: native MS; AcrA^L in 100 mM ammonium acetate pH 7.4 with 0.03 % DDM
[2] = biological target: the molecule itself; assay: native MS; AcrA^L in 100 mM ammonium acetate pH 6.0 with 0.03 % DDM (2 x CMC); sampling cone 120 V, trap collision energy 50-200 V
[3] = biological target: T1, AcrB in SMALP (styrene maleic acid …); assay: native gel or EMSA; SMA-PAGE (native PAGE for SMALPs): AcrB in SMALP nanodiscs with AcrA^S or AcrA^SD; Novex Tris-glycine 4-20% gels, 25 mM Tris pH 8.8, 192 mM glycine, 150 V, 90-120 min, 4 °C, Coomassie stain; conditions: both partners purified

Binder	stoichiometry N [1]	stoichiometry N [2]	stoichiometry N [3]
AcrA^L (lipidated AcrA, expressed from full length AcrA with its signal peptide) (natural protein, lipidated (palmitoylation) at Cys25 after cleavage of signal peptide 1-24, AcrA, periplasmic adaptor protein of AcrAB-TolC, E. coli; full length AcrA amplified from genomic DNA; signal peptide residues 1-24 are cleaved and Cys25 is lipidated, so the protein in the assay starts at Cys25; Measured in DDM micelles (0.03 % DDM, 2 x CMC); source: E. coli C43(DE3) ΔacrAB, pET28a; solubilised from membranes with 1% DDM, purified (HiTrap, SEC) in 0.03% DDM) CDDKQAQQGGQQMPAVGVVTVKTEPLQITTELPGRTSAYRIAEVRPQVSGIILKRNFKEGSDIEAGVSLYQIDPATYQATYDSAKGDLAKAQAAANIAQLTVNRYQKLLGTQYISKQEYDQALADAQQANAAVTAAKAAVETARINLAYTKVTSPISGRIGKSNVTEGALVQNGQATALATVQQLDPIYVDVTQSSNDFLRLKQELANGTLKQENGKAKVSLITSDGIKFPQDGTLEFSDVTVDQTTGSITLRAIFPNPDHTLLPGMFVRARLEEGLNPNAILVPQQGVTRTPRGDATVLVVGADDKVETRPIVASQAIGDKWLVTEGLKAGDRVVISGLQKVRPGVQVKAQEVTADNNQQAASGAQPEQSKS	≤ 5	2	–
AcrA^S (soluble AcrA lacking signal peptide and lipidation, Cys25Met) (natural protein, AcrA, E. coli; lacks signal peptide residues 1-24; Cys25 replaced by a starting methionine (Met25); not lipidated; source: E. coli C43(DE3) ΔacrAB, pET28a; purified from the cytoplasmic fraction (HiTrap, SEC)) MDDKQAQQGGQQMPAVGVVTVKTEPLQITTELPGRTSAYRIAEVRPQVSGIILKRNFKEGSDIEAGVSLYQIDPATYQATYDSAKGDLAKAQAAANIAQLTVNRYQKLLGTQYISKQEYDQALADAQQANAAVTAAKAAVETARINLAYTKVTSPISGRIGKSNVTEGALVQNGQATALATVQQLDPIYVDVTQSSNDFLRLKQELANGTLKQENGKAKVSLITSDGIKFPQDGTLEFSDVTVDQTTGSITLRAIFPNPDHTLLPGMFVRARLEEGLNPNAILVPQQGVTRTPRGDATVLVVGADDKVETRPIVASQAIGDKWLVTEGLKAGDRVVISGLQKVRPGVQVKAQEVTADNNQQAASGAQPEQSKS	–	–	1
